# Peptide text beside a SMILES is read from it. * marks the point of attachment. FITC = O=C1OC2(c3ccc(O)cc3Oc3cc(O)ccc32)c2ccc(NC(=S)*)cc21
# Experiments:
# [1] = system: SGC-7901 cells; assay: Binding affinity to gastric cancer cells (fluorescence saturation); parameters: species or system human; settings: FITC-labeled peptide, 0 to 2.5 μM at 0.25 μM intervals, serum-free RPMI 1640, ambient temperature, 15 min, microplate reader; least squares fit, R^2 = 0.98; read-out: equilibrium dissociation constant (Kd)
# Procedure: 5 × 10^5 SGC-7901 cells were inoculated into each well of a multi-well plate 24h before measurement. Both FITC- RP-1 and FITC-WYP peptide were serially diluted with RPMI 1640 culture medium containing no serum at concentrations ranged from 0 to 2.5 μM at 0.25 μM intervals, and incubated with SGC-7901 cells at ambient temperature for 15 min [40]. After washing twice with pre-cold PBS/0.2% Tween-20 solution, the unbound peptide was rinsed off, and cells were subsequently fixed in 4% paraformaldehyde at ambient temperature for 20 min. […] The equilibrium dissociation constant (Kd) was calculated using a least squares fit of the data with Origin 8.0 software (OriginLab, Massachusetts, USA). I was calculated using the Michaelis-Menten equation I = Imax([X])/(Kd+[X]), in which Imax was the maximum fluorescent intensity corresponding to peptide binding at saturation, which was calculated from the plots; I was the fluorescent intensity measured above; [X] was the concentration of total peptides and estimated to be the concentration of unbound peptide.
# [2] = system: MKN-28 cells; format: cell-based, human; settings: 200 µM
# [3] = system: SGC-7901 cells; format: cell-based, human; settings: 200 µM
# [4] = system: BGC-823 cells; format: cell-based, human; settings: 200 µM
# [5] = system: human gastric epithelial cell line GES-1; format: cell-based; settings: 200 µM
# [6] = system: nude mice; assay: In vivo toxicity in nude mice (body weight, H&E staining); settings: 1 mg/kg i.v., one week
# Procedure: All animal procedures were approved by the Ethics Committee of Xi’an Jiaotong University and conducted in accordance with the Helsinki Declaration (1975). Athymic nude mice (male, 4–5 weeks old, with a body weight of 20–25 g) were obtained from the Animal Experiment Center of Xi’an Jiaotong University, Xi’an, China. The SGC-7901 tumor xenografts were generated by subcutaneous injection of 5–8 × 10^6 SGC-7901 cells suspended in 200 μL culture medium into the left axilla of mice. The cells were allowed to grow for 2 weeks until tumor volume reached an estimate of 1 cm^3.
# Cell Counting Kit-8 (CCK-8, Beyotime, Shanghai, China) assay and animal experiments were performed to evaluate the in vitro and in vivo toxicity of RP-1 peptide, respectively. For CCK-8 assay, 5 × 10^3 MKN-28, SGC-7901, BGC-823 and GES-1 cells in 100 μL culture medium were incubated into each well of a 96-well plate 24 h before peptide was added. All cells were incubated with FITC-RP-1 0.064 to 200 μM. After incubation for 24 h, 48 h or 72 h, 10 μL CCK-8 reagent were added into each well and further incubated for 3 h. Then, the absorbance at 450 nm was measured with a microplate reader (Bio-Rad, Hercules, CA, USA). In animal experiments, FITC-RP-1 or PBS 1 mg/kg was intravenously injected via the tail vein. The body weight of nude mice was measured every day. […]
# [7] = system: CD44 on MKN-28-CD44-ox cells; assay: Confocal immunofluorescence of peptide binding to CD44-overexpressing MKN-28 cells; format: cell-based, human; settings: 100 μM Alexa Fluor 594 labeled peptide, 20 min, fixed cells, confocal microscopy
# Procedure: Plasmids containing cDNA of CD44 protein were synthesized by GENECHEM, Shanghai, China. Using Pfu polymerase and two oligonucleotides ([…] and […]), the CD44 cDNA was cloned into Xhol and ECOR1 sites of GV146 (GENECHEM, Shanghai, China) by recombinant PCR. Then, CD44-negative MNK-28 cells were transfected with the plasmid with Lipofectamine 2000 reagent (Invitrogen, California, USA), and then the efficiency of CD44 expression in MKN-28 cells was tested. Finally, two cell lines were generated as following: MKN-28-con with no CD44 expression and MKN-28-CD44-ox with CD44 overexpression labeled with enhanced green fluorescent protein (EGFP).
# For the preparation of confocal laser microscopy, the transfected MNK-28 cancer cells were washed with phosphate buffer saline (PBS) three times, then fixed with 4% paraformaldehyde at ambient temperature for 30 min, and blocked with 5% BSA (w/v) in PBS at 37°C for 1 h. The blocked cells were sequentially incubated with 100 μM RP-1 or WYP labeled with Alexa Fluor 594 for 20 min, and counterstained with 4,6-diamidino-2-phenylindole (DAPI). […] For the evaluation of the correlation of fluorescent intensities between CD44-EGFP and RP-1-Fluor 594, a semi-quantitative analysis was performed with ImageJ 1.48v software (National Institutes of Health, Maryland, USA) by randomly selecting and observing 10 fields of vision. […]
# [8] = system: SGC-7901 tumor tissue; assay: Fluorescence microscopy of frozen xenograft sections after injection; format: in vivo, athymic nude mice; settings: 3 h after i.v. injection of peptide
# Procedure: Once fluorescence signal reached its peak at the site of tumor, subcutaneous tumor tissues were harvested for further experiment. After shock-frozen with liquid nitrogen, tumor tissues were cut into 5 μm sections and fixed in 4% paraformaldehyde at ambient temperature for 30 min. The coverslips were mounted with glycerol–gelatin containing anti-fading buffer (Bioworld, Minnesota, USA). Finally, the fluorescence images of frozen sections were captured with a fluorescent microscope (Nikon-Eclipse, Tokyo, Japan)
Compound,Kd [1],cell viability [2],cell viability [3],cell viability [4],cell viability [5],toxicity in vivo [6],binding of peptide to CD44 on the cell membrane [7],fluorescence on tumor cells in frozen sections [8]
CC(C)C[C@H](NC(=O)[C@H](Cc1ccc(O)cc1)NC(=O)[C@H](CO)NC(=O)[C@H](Cc1c[nH]c2ccccc12)NC(=O)[C@@H]1CCCN1C(=O)[C@H](Cc1c[nH]cn1)NC(=O)[C@H](Cc1c[nH]c2ccccc12)NC(=S)Nc1ccc2c(c1)C(=O)OC21c2ccc(O)cc2Oc2cc(O)ccc21)C(=O)N[C@@H](Cc1c[nH]c2ccccc12)C(=O)N[C@H](C(=O)N[C@@H](CCC(N)=O)C(=O)N[C@@H](CCC(N)=O)C(=O)N[C@@H](C)C(=O)O)[C@@H](C)O [FITC-RP-1] ({FITC}-WHPWSYLWTQQA-OH; N-terminus and C-terminus assumed),135 nM,more than 85%,> 86%,> 84%,> 91%,low toxicity in vivo,,
"WYPLAHWQTSWQ [scrambled control peptide … consisting of the same amino acids as RP-1, reference compound]",,,,,,,No fluorescent signal was detected,No fluorescence signal was detected
